Target: the molecule itself
Assay: native gel or EMSA; native PAGE of purified HPK under neutral conditions (storage buffer 20 mM HEPES pH 7.45, 150 mM NaCl, 10% glycerol; pH 7.4), 4-15% gel, 25 mM Tris, 192 mM glycine pH 8.3

B1: HPK, HER3-targeted penton base chimera (heregulin ligand - linker - Ad5 penton base - decalysine) (other, human | adenovirus serotype 5 (Ad5))
chain: ELLPPRLKEMKSQESAAGSKLVLRCETSSEYSSLRFKWFKNGNELNRKNKPQNIKIQKKPGKSELRINKASLADSGEYMCKVISKLGNDSASANITIVESNEIITGMPASTEGAYVSSESPIRISVSTEGANTSSSTSTSTTGTSHLVKCAEKEKTFCVNGGECFMVKDLSNPSRYLCKCQPGFTGARCTENVPMKVQNQEKAEELYGGSGGSGSMRRAAMYEEGPPPSYESVVSAAPVAAALGSPFDAPLDPPFVPPRYLRPTGGRNSIRYSELAPLFDTTRVYLVDNKSTDVASLNYQNDHSNFLTTVIQNNDYSPGEASTQTINLDDRSHWGGDLKTILHTNMPNVNEFMFTNKFKARVMVSRLPTKDNQVELKYEWVEFTLPEGNYSETMTIDLMNNAIVEHYLKVGRQNGVLESDIGVKFDTRNFRLGFDPVTGLVMPGVYTNEAFHPDIILLPGCGVDFTHSRLSNLLGIRKRQPFQEGFRITYDDLEGGNIPALLDVDAYQASLKDDTEQGGGGAGGSNSSGSGAEENSNAAAAAMQPVEDMNDHAIRGDTFATRAEEKRAEAEAAAEAAAPAAQPEVEKPQKKPVIKPLTEDSKKRSYNLISNDSTFTQYRSWYLAYNYGDPQTGIRSWTLLCTPDVTCGSEQVYWSLPDMMQDPVTFRSTRQISNFPVVGAELLPVHSKSFYNDQAVYSQLIRQFTSLTHVFNRFPENQILARPPAPTITTVSENVPALTDHGTLPLRNSIGGVQRVTITDARRRTCPYVYKALGIVSPRVLSSRTFKKKKKKKKKK
notes: domain II, oligopeptide linker; domain III, adenovirus serotype 5 capsid penton base (PB); domain IV, carboxy-terminal decalysine tail (K10); About 92 kDa monomer; also called HerPBK10; HPK capsomere; not shown: His6, N-terminal, kept
With B1 the “stoichiometry N” value was at least 5.

— PMC6868389, “HER3-targeted protein chimera forms endosomolytic capsomeres and self-assembles into stealth nucleocapsids for systemic tumor homing of RNA interference in vivo” (Nucleic Acids Research, 2019)
